Here are results for one substance from article PMC10098127.

The assay has as its target HA-tagged N100A zDHHC17 (mouse) (UniProt Q80TN5).

Substance “Human ankyrin-B-GFP (220-kDa splice variant of ankyrin-B)” came in with a protein levels of ankyrin-B-GFP (western blot) co-expressed with N100A zDHHC17 in HEK293T cells, against WT zDHHC17 or zDHHA17 of 3 fold.
